Data published in the supplement of paper PMC12636428.

System: Saccharomyces cerevisiae
Assay: transcriptional activation domain activity (GFP:mCherry ratio, weighted mean of sorted bins, harmonized to initial dataset scale) (arbitrary fluorescence ratio units); higher = stronger transcriptional activation
Conditions: beta-estradiol 1 µM; induction time 4 h
Procedure, shortened: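 Sorting into 8 bins by GFP:mCherry ratio followed a 4-hour hold at 30 °C after cultures were diluted 1:5 into SC with 1 uM beta-estradiol. The yeast diploids carried a GFP reporter and had barcoded protein tiles, fused to an estradiol-inducible synthetic transcription factor, integrated at URA3. Barcodes were then sequenced, and tiles with under 50 reads were removed. Activation activity is the read-weighted mean of bin median fluorescence, averaged across barcodes and linearly mapped onto the initial dataset scale.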

For “MMYDSLSSLFVSTLFFSLYEFLCLSCPLCFNYPFQVGFCTLFLFFHPLFAFMQ”, the “transcriptional activation domain activity” value was 34500.
With “MRCLRSVLGVFFLSYSLYILHCIFCLISYPLAISFMNLSCLGWFHGFWGFIYF” the “transcriptional activation domain activity” value was 36000.
“EEDNHSGDDNEDDHDSSGVDDDHGGGGDEDDGDGGEGDGGDVMQLYFIHNIIL” was tested, and the “transcriptional activation domain activity” value was 37400.
With “AKPDVKKAKAAPVASPKPKAKAAKKVAEPAVEEKKVEEKAEKLAKKAKATKAE” the “transcriptional activation domain activity” value was 32700.
In the case of “RVYKRDPMLYLSSGWQYQGHFVYVTRLDVIHLSSWLRVFCFQIQHFSSVWWVL”, the “transcriptional activation domain activity” value is reported as 59000.
With “NLLMRPRYPPNQFISKISLRLILTDLPYMIFVFSGIFIMLGLFYPIFYLQLYA” the “transcriptional activation domain activity” value was 50400.
“GDSTNGNNSPVEDEANLRRKAKKRREKEREREEKKRVGRREKAKKTNGGEKQG” was tested, and the “transcriptional activation domain activity” value was 27000.
For “TNLYDHAVTPEILLEQLAYVDNFIPSLDNEFSNVDWNVNTTHNNANNNGADTF”, the “transcriptional activation domain activity” value was 47300.
In the case of “TKCSLDKMLPMLLPLKDALVHMDLMEYYFQTGYLYYLAFSCFILLLYPPFMVL”, the “transcriptional activation domain activity” value is reported as 53800.
For “DIIPDHYKHKPISLYDPRKAPLLNQYRLIVPRSRNIIEVCQFIILLLLYCLSM”, the “transcriptional activation domain activity” value was 78100.
“MIRFPCLLLYIFAMVYLGVLFFSFFDSCFFFFLHLLGAGWVVHFFLDIFFFYI” was tested, and the “transcriptional activation domain activity” value was 70600.
For “MLLLFVYPCSPLSHCSSFYSYYLIIKLLLFYDIKNLSFFFFLEYFDLWWLITI”, the “transcriptional activation domain activity” value was 78500.
In the case of “LKIYLLNPLHMTRFADLLYQGAIMNRVIQPYESHLQYLLQWMCDYNLYGCGYI”, the “transcriptional activation domain activity” value is reported as 75800.
With “MKRVYKLNTCLFFYNSYNPFHIYFYSFIHSNMPAMYHLFSILLLWLNCLSLVQ” the “transcriptional activation domain activity” value was 44500.
For “AGDTSDGESASTPAHSSHQSRKQQVRHRASVACASCRERRIRCVVPEGASECT”, the “transcriptional activation domain activity” value was 27400.
With “DSSSSNDSDSGADDGAARPVRRSRARRKHKHNHEHDGNGGEGDAKDKARKPSP” the “transcriptional activation domain activity” value was 28400.
“MNAQQLSGTRHKKEIKRRTKTGCLTCRKRRIKCDEGHPTCRNCQKSKRECLGY” was tested, and the “transcriptional activation domain activity” value was 38600.
For “YMGSVNLVHYYGVRTFSFILLGPCLTLVVVYRVLALFQSANQQFYILVLAYIA”, the “transcriptional activation domain activity” value was 36200.
For “ILFFCLVANSDKLHMIIFAVVPIRCVFPVFFLIFEVIINCWLPLVWHLLYNLT”, the “transcriptional activation domain activity” value was 43800.
In the case of “MARAKPTRIVESDEDDSDSGQLSSAPAKRKAGSEDANPAAKRARTASAKQKQL”, the “transcriptional activation domain activity” value is reported as 63000.
“PLIQVPGYHSCGHGGLGGLCQASPTLLVISQSLFLRWWHTVHLLIEIYIWLWS” was tested, and the “transcriptional activation domain activity” value was 72200.
In the case of “SSQPTKKPTPTTTTTTTTTTTTTTTTTTTTTEKPHTTHHTTHTTTTTTTKKAE”, the “transcriptional activation domain activity” value is reported as 36700.
For “FLAAVTCLLCVIGIFICLLFHANPYLRLIPLLIMIQSICFVLFSHFGLCLYRL”, the “transcriptional activation domain activity” value was 39400.
With “MGCFFCYCSIVLFRSSLYIISFFLLFFFLCFLFFYHIWVGVLFPSIFPLFYIR” the “transcriptional activation domain activity” value was 65400.
In the case of “SLSRKKRGRGRPKGSKNKKSGDGAASSAAPSGDATGKRKRGRPPKEKPAEATA”, the “transcriptional activation domain activity” value is reported as 44300.
For “LSILSSLSFSFLSSLSLSFFTLIPFLPLLLFLYSLYSHLFLLLSFILFPHPSL”, the “transcriptional activation domain activity” value was 65400.
“MFVFHMFVFYFVCLFFICLSFILYALFFMSYFYFLLVYFDICFLFLYLFLIFI” was tested, and the “transcriptional activation domain activity” value was 15300.
In the case of “GDERSRKAGEKETSRGGRGAGGGRRETGRKEKPGGKAGKGGRTRAGGRGREKK”, the “transcriptional activation domain activity” value is reported as 21800.
For “QTTLRAVVSSKEAGVIIGKGGKNVADLRDETGVKAGVSKVVQGVHDRVLTITG”, the “transcriptional activation domain activity” value was 51200.
With “RLPNNANSTTGLNDNDYNLDDTNNDNTNSMQSILEDFVSSEEALKFMPDAGRD” the “transcriptional activation domain activity” value was 30400.
With “EEEESAAAAKKMAAVKTRKARAGSPKTKSARKATSTRPTSKTKGGAKAKRAAA” the “transcriptional activation domain activity” value was 20900.
In the case of “AKNLHLHILRHPSKWMKLYFYLWPLIVFYHIPLQSFFDFNAVFMLLQVARFPN”, the “transcriptional activation domain activity” value is reported as 50100.
For “MSLYICNLVFSFFFFLFSFFLFLTLIFSSTRADCLWLLQERWYFVLLWNTLPF”, the “transcriptional activation domain activity” value was 45800.
For “GTRAPAVHRDQRGPVDSQERAGEDVVRRERSVGQGRRAVRGARLVYAGAAALE”, the “transcriptional activation domain activity” value was 51500.
“MKSLPFGIHTAVCDLISLLLLLLLFFFFFFLLASIWVLDNFFPFFPFSRHLYS” was tested, and the “transcriptional activation domain activity” value was 37500.
In the case of “SSSDFVPVNFEADSLPYTPTTLDGLASLTSLEDLFSADDALASFDWSEWPWIY”, the “transcriptional activation domain activity” value is reported as 156000.
“FAEQGWQVVYYSWQWSLGVYIHYYLPSSVWAGYPHISLPVVIKVYYLMQISLY” was tested, and the “transcriptional activation domain activity” value was 37900.
“DSLFFDHDLLSSSITNTNNGQGSNNGRQASKDDTLNLLDTTVNSNNNHNANNE” was tested, and the “transcriptional activation domain activity” value was 32900.
In the case of “MCCEAEWKREVVQDHKFDFINVSEFHRTDILTRLKYVWKYILILKAFAVMGLD”, the “transcriptional activation domain activity” value is reported as 53700.
“PAAAAQAPPAAGGKKEEAAAAEVPQAEAAAEGAGSPEGEGKDAQAEAAAPAEG” was tested, and the “transcriptional activation domain activity” value was 16800.
For “TGVGLGVCARHEFVLANSAVDLQRGERYANMDYCAASLLRHICLLLFIVFLYD”, the “transcriptional activation domain activity” value was 57700.
For “RDVFLGILHRNWFNRVWILQEVASARAAVVFCGRNSISTRIFTRLPLLFDITP”, the “transcriptional activation domain activity” value was 68000.
“PFSFGLFLLYLCSCLTNCMTHIVFCLCSNIQLFFRFWFFYWIDHRPLGFFLAR” was tested, and the “transcriptional activation domain activity” value was 44700.
For “TVPVLVLVIYDWPRDRSNAYQVVLAISIWCWGVYQLLYIFLCGLYNPNFSTFR”, the “transcriptional activation domain activity” value was 59700.
In the case of “AEDRYIMELFVEDFICLAISGGPRLPVERAVSSWMVRILLSIQIRNYMQGNRQ”, the “transcriptional activation domain activity” value is reported as 44500.
“EKLVMNILEAVRLFHSIFDGLIAKALDEFAHLSRQARTMLSFFVIHIHLGVLH” was tested, and the “transcriptional activation domain activity” value was 71300.
“MLICLFVVFSPFFLFIFLYLSAYRLSFFNFSCFLLFLYLFLIHLLYFPLYFIF” was tested, and the “transcriptional activation domain activity” value was 61200.
“DREKRSSGHRNGRRHRGHRSGRKQRRSRSRSRGDRPDSPVRAKEGEGGAKDRK” was tested, and the “transcriptional activation domain activity” value was < 6570.
In the case of “MARLLFIPIFVNLSFPHHKSYFFLTSMLTLLLQLYLLLSLCWLILLLPCLKDS”, the “transcriptional activation domain activity” value is reported as 40400.
With “EKVKEEEEVKYKGKEQEEVKDKGKEQEQEQEQEQEQEQEQEAPAPPRTTTSTA” the “transcriptional activation domain activity” value was 40900.
For “MLVRLFFCCYCCCLPVCLSVCLLHVVRCVMLLLTLMLFALLLRTCATLFFLFF”, the “transcriptional activation domain activity” value was 61400.
“GAVINLSLSLGRRTQVEEAIKLVRYKAHYVSGSIDHGLHRLLVWAYTLLTVRI” was tested, and the “transcriptional activation domain activity” value was 57100.
In the case of “LLCILLLVYFIYVALFLVSINTGVTLSGLNIQMSSKYSVYYLLIYHVFGFFWL”, the “transcriptional activation domain activity” value is reported as 58900.
For “LFSFLFPLLLFFSHSFFFYPFLCPLLLPPSLSFYLPLSLSSLSPIPCICFFSD”, the “transcriptional activation domain activity” value was 63200.
“SPRPSYILNAYLFISLLFDIVVLRTVWIALPSFQPVRIVLTSSFALKTIILFL” was tested, and the “transcriptional activation domain activity” value was 54000.
With “RYLRHIKNIVFVLVLLNYWSKLYNTVLIGGPVRAVHDFKTYLIRIVFRQLRRL” the “transcriptional activation domain activity” value was 47300.
For “MGLGVLYHLSLLFPFLFFFLYLSSSFPSFLILFFFFFGYSPSAVWVFLFCFGQ”, the “transcriptional activation domain activity” value was 58100.
In the case of “MCIKLPLYPASFFIHRSLPLITSVFDLNLTLMVSLCPRIVPISFFACALLLVP”, the “transcriptional activation domain activity” value is reported as 53000.
In the case of “LGVSAGAGLYPLQDKKREEEEDGVRGFVREGLGDLSCFIGSSVPLTAKKVLEA”, the “transcriptional activation domain activity” value is reported as 75700.
“TRTLFMVPQLCCAFSSMWLYQILVAVSIYLTNHVGIMMVRVWSYCVAVYVLEV” was tested, and the “transcriptional activation domain activity” value was 69800.
“MVLCNSKSLFFPLFLHYLYCVIFLLLWILFHIAFIFFTNFYYYLPSHTLCAFI” was tested, and the “transcriptional activation domain activity” value was 61700.
